Where two headings read alike, the source gives them in different places.
Columns and labels:
[1] = tested on: MCF-7 tumor cells; experiment: in vitro cytotoxicity assay, inhibition of proliferation of MCF-7 tumor cells; format: cell-based; conditions: Homo sapiens, MCF7, read-out: IC50 (concentration needed for 50% inhibition of cell proliferation)
Description: Five-thousand MCF7 cells were plated per well in a 96-well test plate in 100 ul of rich media on day 0. A shadow plate was made for each test plate, with each well of the shadow plate containing media or 3× the intended final concentration of test agent in media in each well. As a negative control, media is used. […] After making the shadow plate, 50 ul is transferred from each well of the shadow plate to the corresponding well of the test plate to generate the final concentrations of test agent in the wells of the test plate. Cell proliferation is determined by adding Dojindo CCK-8 reagent and incubating and measuring absorbance of the dye according to the manufacturer's instructions.

[2] = tested on: A-431 human epithelial carcinoma cells; experiment: in vitro proliferation inhibition of A-431 cells; format: cell-based; conditions: 4 days with drug
Description: A-431 human epithelial carcinoma cells were seeded at 5,000 cells per well in 96-well plates and grown for 1 day. A-431 cells have abundant EGF receptors. After 1 day growth, free bendamustine and 765EGF-bendamustine were added to the plate at concentrations ranging from 200 micromolar bendamstine to 6 nM and from 20 microEq/L 765EGF-bendamustine down to 0.6 nM. The plates were incubated with drug at 37 degrees C. under a humidified 5% CO2 atmosphere for 4 days, and then DOJINDO cell counting kit-8 reagent was added to wells to read proliferation. The plates were read according to manufacturer's instruction. There was a huge difference between free bendamustine and EGF-bendamustine. […] The difference in effectiveness was more than 1000-fold expressed in terms of the concentration of bendamustine groups.

[3] = tested on: L929 cells; experiment: 765TNFa activity assay, killing of L929 cells; format: cell-based; conditions: 24 hours
Description: L929 cells were plated at 10,000 cells per well in two 96-well plates in their recommended growth medium with 2% fetal bovine serum. They were grown for 2 days at 37° C. in a 5% CO2 humidified atmosphere. In one plate, after the 2 days incubation 1 ug/ml final concentration actinomycin D was added; in the other plate no actinomycin D was added. 765TNFa was then added at a range of concentrations. Plates were incubated 24 hours more. Then cell viability was quantified with DOJINDO cell counting kit-8 according to manufacturer's instructions. […] These are even lower IC50s than are reported in the literature for TNF-alpha.

[4] = format: physicochemical
Source text: These smaller fragments are seen on SDS-PAGE.

[5] = molecular target: T1, type 1 IGF receptors on MCF7 cells (Homo sapiens, UniProt P08069); experiment: 765IGF binding assay to IGF-1 receptor on MCF7 cells (125I IGF-1 competition); conditions: overnight at 4° C.
T1 construct: type 1 IGF receptors that are abundant on MCF7 cells; host or cells: MCF7
T1 sequence (P08069 31-736 limits assumed): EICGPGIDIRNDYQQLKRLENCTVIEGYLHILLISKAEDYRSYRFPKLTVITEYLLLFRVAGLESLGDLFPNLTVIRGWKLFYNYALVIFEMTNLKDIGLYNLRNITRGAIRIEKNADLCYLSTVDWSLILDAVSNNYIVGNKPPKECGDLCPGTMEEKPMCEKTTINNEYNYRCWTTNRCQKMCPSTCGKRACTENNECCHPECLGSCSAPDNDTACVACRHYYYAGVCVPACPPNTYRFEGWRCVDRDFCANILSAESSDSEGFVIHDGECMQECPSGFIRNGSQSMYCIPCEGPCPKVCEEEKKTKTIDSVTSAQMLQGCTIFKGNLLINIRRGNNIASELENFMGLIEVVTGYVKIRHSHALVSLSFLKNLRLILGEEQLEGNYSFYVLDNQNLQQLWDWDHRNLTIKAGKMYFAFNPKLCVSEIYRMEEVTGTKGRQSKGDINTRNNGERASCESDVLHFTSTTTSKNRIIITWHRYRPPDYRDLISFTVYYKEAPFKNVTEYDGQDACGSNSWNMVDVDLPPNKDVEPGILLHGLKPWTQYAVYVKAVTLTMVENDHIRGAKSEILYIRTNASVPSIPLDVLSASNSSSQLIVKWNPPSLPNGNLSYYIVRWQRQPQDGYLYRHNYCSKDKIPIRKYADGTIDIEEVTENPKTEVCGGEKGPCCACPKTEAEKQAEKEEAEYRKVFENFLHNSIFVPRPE
T1 sequence (P08069 741-1367 partner limits assumed): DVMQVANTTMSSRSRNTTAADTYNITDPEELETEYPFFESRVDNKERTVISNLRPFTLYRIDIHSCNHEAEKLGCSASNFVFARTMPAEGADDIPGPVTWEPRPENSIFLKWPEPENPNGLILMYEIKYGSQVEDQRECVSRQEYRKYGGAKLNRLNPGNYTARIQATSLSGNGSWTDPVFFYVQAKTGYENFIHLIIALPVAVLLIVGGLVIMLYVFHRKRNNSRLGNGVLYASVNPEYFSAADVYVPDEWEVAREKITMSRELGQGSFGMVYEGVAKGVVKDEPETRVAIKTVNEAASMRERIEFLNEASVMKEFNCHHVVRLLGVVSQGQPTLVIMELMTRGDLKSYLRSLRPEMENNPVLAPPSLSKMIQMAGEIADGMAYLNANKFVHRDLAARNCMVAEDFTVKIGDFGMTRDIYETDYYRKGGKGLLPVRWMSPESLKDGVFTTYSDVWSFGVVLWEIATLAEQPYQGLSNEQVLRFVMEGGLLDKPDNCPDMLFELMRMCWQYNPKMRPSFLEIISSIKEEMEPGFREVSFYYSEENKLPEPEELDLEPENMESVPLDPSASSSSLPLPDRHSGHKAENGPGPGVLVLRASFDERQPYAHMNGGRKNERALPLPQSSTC
Description: Theory of assay: Radioactive ^125I labeled insulin-like growth factor-1 (IGF-1) competes with a test ligand for binding to type 1 IGF receptors that are abundant on MCF7 cells (a human breast cancer cell line) in vitro.
MCF7 cell media: 500 mL MEM, 0.01 mg/mL bovine insulin; 5 mL sodium pyruvate, 5 mL non-essential amino acids, 10 mL sodium bicarbonate, 10 mL fetal bovine serum, 5 mL penicillin/streptomycin.
MCF7 cells (ATCC HTB-22) were plated at 20,000 cells per well in a volume of 0.5 mL/well in a 48-well tissue culture plate (flat bottom with low evaporation lid) and placed in a cell culture incubator set at 37° C. with 5% CO2. After 2-3 days in culture the plates were washed 2× with 0.5 mL per well of cold binding assay buffer (100 mM Hepes-NaOH, pH 7.2; 120 mM NaCl; 5 mM KCl; 1.2 mM MgSO4; 0.1% BSA). After the final wash, 0.5 mL of binding assay buffer was added to each well and the plates are placed at 4° C. for 2 to 6 hours.
Test ligands were prepared at a concentration of 10 micromolar (long-R3-IGF) or 20 micromolar (765IGF and IGF-MTX) in 5 mM HCl in a volume of 200 ul. To determine the concentration, the molecular weight of 765IGF (9742 daltons) and long-R3-IGF (9111 daltons) are used. […]
The plates were then incubated overnight at 4° C. […] Cells were lysed with 0.5 mL 300 mM NaOH, 1% SDS and the lysates were counted on a gamma counter.

[6] = molecular target: IGF receptors (Homo sapiens, UniProt P08069); experiment: competition binding of refolded IGF fusion proteins to IGF receptors against radioactive wild type IGF; conditions: Ni eluates refolded 3 hours at room temperature, read-out: approximate binding constants (KDs)
IGF receptors, sequence (P08069 31-736 limits assumed): as the sequence (P08069 31-736 limits assumed) above
IGF receptors, sequence (P08069 741-1367 partner limits assumed): as the sequence (P08069 741-1367 partner limits assumed) above
Description: 2 ml of each of the original Ni eluates from Example 1 was mixed with about an equal volume of 100 mM glycine, 6 M urea, pH 9.5, concentrated by ultrafiltration in a CENTRICON 3 kDa filter unit, then brought up again in that buffer and concentrated to about 420 ul. Then they were diluted to 2 mg/ml for 403IGF, 764IGF, and 765IGF, and 4 mg/ml for 784IGF and 2.4 mg/ml for 785IGF.
200 ul of each of these was mixed rapidly with 1.8 ml of refold buffer. Refold buffer was 1.4 M urea, 100 mM glycine, 0.5 M NaCl, 19% ethanol, 0.5 mM GSSG, 4 mM GSH, pH 9.5. They were refolded at room temperature for 3 hours, and then tested in a binding assay for competition binding to IGF receptors against […] radioactive wild type IGF (Perkin Elmer, Inc.) For comparison, commercial Long-R3-IGF (LR3IGF) was also tested.

[7] = tested on: MCF-7 tumor cells; conditions: for comparison, McTavish et al., 2009; cited from earlier work
[8] = molecular target: T2, dihydrofolate reductase (DHFR) (Homo sapiens, UniProt P00374); experiment: inhibition of dihydrofolate reductase (Sigma-Aldrich assay kit); format: biochemical
T2 construct: purchased Sigma-Aldrich
T2 sequence (P00374 1-187): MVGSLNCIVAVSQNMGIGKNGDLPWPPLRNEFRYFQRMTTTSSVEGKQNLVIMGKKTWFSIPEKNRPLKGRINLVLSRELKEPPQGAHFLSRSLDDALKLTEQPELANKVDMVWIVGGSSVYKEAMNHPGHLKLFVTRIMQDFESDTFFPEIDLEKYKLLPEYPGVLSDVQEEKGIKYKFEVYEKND
Description: The experiments were done with the dihydrofolate reductase assay kit from Sigma-Aldrich (St. Louis, Mo., USA), according to the manufacturer's instructions. In the assay dihydrofolate reductase is mixed with pH 7.5 buffer. […] It was incubated for 30 seconds to allow inhibitor binding. Then NADPH is added to 50 uM final concentration, and then dihydrofolic acid is added to 60 uM final concentration. The reaction is monitored by measuring absorbance at 340 nm.

Molecule `CN(Cc1cnc2nc(N)nc(N)c2n1)c1ccc(C(=O)N[C@@H](CCC(=O)O)C(=O)O)cc1` [Methotrexate, methotrexate] has an IC50 [1] of 88 nM.

For `Cn1c(CCCC(=O)O)nc2cc(N(CCCl)CCCl)ccc21` [bendamustine], the “concentration above which proliferation was inhibited” value [2] was “above 10 micromolar” and the IC50 ([2]; Homo sapiens, 96 h) was about 90000 nM.

For “765TNFa: soluble form of tumor necrosis factor alpha fused to SEQ ID NO:1 leader, SEQ ID NO:17”, the “IC50 for killing the cells” value ([3]; L929 cells with 1 ug/ml actinomycin) was “less than 79 pg/ml” and the “IC50 for killing the cells” value ([3]; L929 cells with no actinomycin) was “about 70 ng/ml”.

B1: IGF132: variant of IGF-1 with reduced binding to soluble IGF binding proteins, SEQ ID NO:4 (protein)
chain: FVNQHLCGSHLVEALYLVCGDRGFYFNKPTGYGSSSRRAPQTGIVDECCFRSCDLRRLEMYCAPLKPAKSA
In the case of B1, the stability to storage [4] is reported as “breaks down to produce a significant amount of smaller molecular weight fragments”.

B2: LR3IGF: commercial Long-R3-IGF variant of IGF-1 (Sigma Aldrich), SEQ ID NO:5 (protein)
chain: MFPAMPLSSLFVNGPRTLCGALVDALQFVCGDRGFYFNKPTGYGSSSRRAPQTGIVDECCFRSCDLRRLEMYCAPLKPAKSEA
With B2 the Kd [5] was about 3 nM and the Kd [6] was about 1 nM.

B3: LR3IGF-MTX (conjugate)
chain: MFPAMPLSSLFVNGPRTLCGALVDALQFVCGDRGFYFNKPTGYGSSSRRAPQTGIVDECCFRSCDLRRLEMYCAPLKPAKSEA
For B3, the IC50 [7] is given as about 400 nM, the IC50 ([8]; DHFR, concentration of conjugated MTX groups, read-out: IC50) is given as 99 nM and the IC50 ([8]; IC50 in nEq/L divided by MTX per IGF, read-out: inhibition constant in terms of protein concentration) is given as 35 nM.

B4: 403IGF: His6-IGF fusion protein, SEQ ID NO: 14 (protein)
chain: MTSGHHHHHHSAGVNGFVNQHLCGSHLVEALYLVCGDRGFYFNKPTGYGSSSRRAPQTGIVDECCFRSCDLRRLEMYCAPLKPAKSA
With B4 the Kd [6] was about 2 nM.

B5: 764IGF: His6-K5-IGF132 fusion protein, SEQ ID NO: 18 (protein)
chain: MVKGKHHHHHHNGKGKSKFVNQHLCGSHLVEALYLVCGDRGFYFNKPTGYGSSSRRAPQTGIVDECCFRSCDLRRLEMYCAPLKPAKSA
In the case of B5, the Kd [6] is reported as about 100 nM.

B6: 785IGF: mutTrx-IGF132 fusion protein, SEQ ID NO: 16 (protein)
chain: MVKQIESKTAFQEALDAAGDKLVVVDFSATWCGHCKMIKPFFHSLSEKYSNVIFLEVDVDDSQDVASESEVKSMPTFQFFKKGQKVGEFSGANKEKLEATINELVGSKSGHHHHHHSAKGFVNQHLCGSHLVEALYLVCGDRGFYFNKPTGYGSSSRRAPQTGIVDECCFRSCDLRRLEMYCAPLKPAKSA
With B6 the Kd [6] was about 40 nM.

From patent publication US9801923B2, “Fusion proteins containing insulin-like growth factor-1 and epidermal growth factor and variants thereof and uses thereof” (IGF Oncology, LLC, priority 2014, dated 2017)
